Assay results as given in article PMC5838018, “The Conserved ESCRT-III Machinery Participates in the Phagocytosis of Entamoeba histolytica” (Frontiers in Cellular and Infection Microbiology, 2018).

T1: EhVps32 (Entamoeba histolytica (endogenous in …, UniProt C4M1A5 1-204))
T1 construct: EhVps32, Entamoeba histolytica ESCRT-III protein (ortholog of yeast Snf7/Vps32 and human CHMP4), endogenous in trophozoites; Precipitated and detected with the mouse polyclonal α-rEhVps32 antibody; also called EhVps32 protein; source: endogenous, E. histolytica trophozoites (lysate for immunoprecipitation; fixed, permeabilized cells for flow cytometry)
T1 sequence: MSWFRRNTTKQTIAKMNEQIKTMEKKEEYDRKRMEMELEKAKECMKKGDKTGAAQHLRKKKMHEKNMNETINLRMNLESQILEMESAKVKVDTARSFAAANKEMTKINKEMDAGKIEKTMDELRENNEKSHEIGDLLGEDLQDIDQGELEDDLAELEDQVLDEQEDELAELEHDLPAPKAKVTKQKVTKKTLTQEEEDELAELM

B1: EhVps2 (natural protein)
chain: MSRLFHKKTPQEIVREQKLNISKSIREITRESKRLEREEVRLTNEIRKMARLGRTNTVKVMAADLVKTKKQIDKLQVVIAQLNSTKMKLTEMSSMVAVTEAMNGVTNAMRKVNEATKLPAMQKVMNDFEKQNAELGIKNTMVSDMVNEGYEGDDIEEETELEVDKVLTEIGLDVENGLKPVPETRQRNTRLKERRQVQMEGGVKTRNEGNEQPEDLDTPGSRVPKAFNEGEDDEDEDDIVSRIANL
notes: EhVps2, Entamoeba histolytica ESCRT-III protein, endogenous in trophozoites; also called EhVps2 protein; source: endogenous, E. histolytica trophozoites (lysate for immunoprecipitation; fixed, permeabilized cells for flow cytometry)
B2: EhVps20 (natural protein)
chain: MLNRFIGKNEEPSIDETHAILESRVTDLDQKIVDLDRQIRQNIEMSHKTTGAESQRYKQKALMLLKQKKQHEQHRDITERHQMNLENVQFQVDQMKDYKKVYDAMAASNRQMKLISRQFDINSIEDVQDSMMNFAEDQQEFGDILSQDITNMDLNELDDELAELGDSMFEGDIQIPESDGFGSVPITNEPFRQKEESQPDDKKFAI
notes: EhVps20, Entamoeba histolytica ESCRT-III protein, predicted 206 amino acids, endogenous in trophozoites; also called EhVps20 protein; source: endogenous, E. histolytica trophozoites (lysate for immunoprecipitation; fixed, permeabilized cells for flow cytometry)
B3: EhVps24 (natural protein)
chain: MGNLNSQTVDNSFQQKQFELKVNRDNLSKREKEYQNNIEKLNKEARKYCRKGDKENAKRQIKLRTLYETNLKEIRCYLDQTETILIQLEASKRNYDVAKLMDESNKEIKKILNKIPKNFIEEIINTKKENSDKLKEIDSLYEQLNDIDNENQIEQELNKLALEVMSEKEGGIEAVKNEVIAESLPEVNSQSDMLISKQNIVIETF
notes: EhVps24, Entamoeba histolytica ESCRT-III protein, endogenous in trophozoites; also called EhVps24 protein; source: endogenous, E. histolytica trophozoites (lysate for immunoprecipitation; fixed, permeabilized cells for flow cytometry)

Experiments:
EhVps24 = target: B3; experiment: flow cytometry on cells; PFA-fixed, Triton X-100 permeabilized trophozoites after 0, 5 and 30 min of erythrophagocytosis, stained with couples of primary antibodies and secondary antibodies with distinct fluorochromes; percent association of each couple; conditions: partners not purified
EhVps32 = target: T1, EhVps32; experiment: as above; conditions: partners not purified

| Binder | percent interaction, 30 min of erythrophagocytosis (EhVps24) [%] | percent interaction, 30 min of erythrophagocytosis (EhVps32) [%] |
| --- | --- | --- |
| B1 | 10 | – |
| B2 | – | ~47 |
| B3 | – | ~47 |
